Where “and” joins values, the source holds several entries; their conditions need not be identical. Identical values can stand only once. Like-named read-outs stand apart in the source and are kept apart here.
How the values were obtained:
[1] = target: T1, bio-LAG3-mFc (human, UniProt P18627 23-450, biotin-labelled); experiment: blocking of LAG3 binding to Daudi cells, same experiment
T1 construct: also called hLAG-3
T1 sequence (looked up): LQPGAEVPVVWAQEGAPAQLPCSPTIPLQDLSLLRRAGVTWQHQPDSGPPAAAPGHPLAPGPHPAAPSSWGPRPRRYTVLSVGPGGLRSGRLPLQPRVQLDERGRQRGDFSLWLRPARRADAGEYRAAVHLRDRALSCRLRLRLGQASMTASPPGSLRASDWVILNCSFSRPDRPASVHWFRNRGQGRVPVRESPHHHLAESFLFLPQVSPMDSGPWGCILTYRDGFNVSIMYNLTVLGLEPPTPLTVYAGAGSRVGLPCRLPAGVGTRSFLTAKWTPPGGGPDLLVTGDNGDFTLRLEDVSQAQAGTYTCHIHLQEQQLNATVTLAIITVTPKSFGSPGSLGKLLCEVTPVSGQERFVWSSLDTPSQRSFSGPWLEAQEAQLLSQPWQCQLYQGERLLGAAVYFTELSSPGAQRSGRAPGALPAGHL
Protocol: The Daudi cell line (ATCC, CCL-213) was expanded and seeded into 96-well microplate at a density of 2×10⁵ cells/well, and then centrifuged at 1600 rpm for 10 min; thereafter the cells were fixed with 100 μl/well of a fixative solution for immunostaining (Shanghai Beyotime Biotechnology Co., Ltd., Cat. No.: P0098) for half an hour at room temperature. After washing with PBS (BasalMedia Biology, Cat. No.: B320) once, 5% milk was added with 230 μl per well, and the microplate was incubated for 2 hours at 37° C. for blocking, then was washed three times with PBST. […] The microplate was then incubated for 1 hour at 37° C. and washed 5 times with PBST. 50 μl/well of 1:1000 diluted streptavidin-HRP secondary antibody (GenScript, Cat. No.: M00091) was added to the microplate and incubated for 1 hour at 37° C. After washing the microplate 5 times with PBST, 50 μl/well TMB (Surmodic, Cat. No.: TTMB-1000-01) was added to the microplate for color development, and 50 μl/well 1M H₂SO₄ was added to stop the reaction. The microplate was then read by a microplate reader (MuitiskanGo Thermo, model 511919200), and the data were analyzed using GraphPad prism 5.

[2] = target: T2, human LAG-3-his (human, UniProt P18627 23-422); experiment: ELISA on coated human LAG-3, OD450 (Example 3, Example 13) [panel a]
T2 construct: range 23-422; also called hLAG-3-his; hLAG-3
T2 sequence: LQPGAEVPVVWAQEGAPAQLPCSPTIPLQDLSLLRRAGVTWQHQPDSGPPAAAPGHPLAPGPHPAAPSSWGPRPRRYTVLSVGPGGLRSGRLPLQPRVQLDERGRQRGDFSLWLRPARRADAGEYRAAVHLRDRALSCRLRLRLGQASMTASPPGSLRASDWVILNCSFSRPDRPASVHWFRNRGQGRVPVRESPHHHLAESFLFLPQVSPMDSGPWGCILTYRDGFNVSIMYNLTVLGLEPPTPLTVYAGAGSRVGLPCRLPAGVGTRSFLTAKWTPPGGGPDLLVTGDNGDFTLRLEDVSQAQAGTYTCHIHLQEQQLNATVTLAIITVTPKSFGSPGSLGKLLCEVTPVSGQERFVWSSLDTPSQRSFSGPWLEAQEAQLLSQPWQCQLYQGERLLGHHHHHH

[3] = target: T1, bio-LAG3-mFc; experiment: blocking ELISA, LAG-3 on Daudi cells
[4] = target: T2, human LAG-3-his; experiment: ELISA on coated human LAG-3, OD450 (Example 3, Example 13) [panel a]; remark: listed apart in the source

B1: humanized anti-human LAG-3 antibody Ab2317 (antibody, human IgG4 S228P, kappa, V domains shown)
VH: QVQLVQSGAEVKKPGASVKVSCKASGYTFTDYEMHWVKQAPGQGLEWIGGIDPETEGIAYNQKFRGRATLTADKSTSTAYMELRSLRSDDTAVYYCTNSNYYGGREAWFAYWGQGTLVTVSS
VL: DIQMTQSPSSLSASVGDRVTITCRASQDIGSSLNWYQQKPGKAPKRLIYATSSLDSGVPSRFSGSRSGSDFTLTISSLQPEDFATYYCLQYVTSPLTFGGGTKVEIKR
notes: LG2317 / LG2343, human kappa / hIgG4
IC50 [1]: 9.78 nM and 28 nM | EC50 (read off the curve) [2]: ~0.3 nM | fold stronger blocking activity than Ref [3]: ≥ 2 times | EC50 (read off the curve) [4]: ~0.3 nM

— patent US20220340657A1 (L AND L BIO CO LTD NINGBO CHINA, published 2022)
